Experimental data taken from US20250236682A1 (published 2025).

Target: human FcγRIIIA (176V isoform, R&D systems, 4325-FC) (human, UniProt P08637 17-208)
Assay: BLI

human FcγRIIIA (176V isoform, R&D systems, 4325-FC), sequence (P08637 17-208 F176V): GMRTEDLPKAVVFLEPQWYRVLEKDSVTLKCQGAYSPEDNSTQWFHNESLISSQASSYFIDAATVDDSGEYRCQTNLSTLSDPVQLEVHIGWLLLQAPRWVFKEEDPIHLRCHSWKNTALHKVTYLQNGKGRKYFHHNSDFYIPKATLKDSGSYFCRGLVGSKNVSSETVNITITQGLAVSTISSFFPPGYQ

- Kd: 0.11 nM
B1: H01DE4 (antibody)
heavy: not shown
light: not shown
chain: DKTHTCPPCPAPELLGGPDVFLFPPKPKDTLMISRTPEVTCVVVDVSHEDPEVKFNWYVDGVEVHNAKTKPREEQYNSTYRVVSVLTVLHQDWLNGKEYKCKVSNKALPAPEEKTISKAKGQPREPQVCTLPPSREEMTKNQVSLSCAVKGFYPSDIAVEWESNGQPENNYKTTPPVLDSDGSFFLVSKLTVDKSRWQQGNVFSCSVMHEALHNHYTQKSLSLSPGK
